# Assay: soluble on expression in E. coli; label from the status in PepcDB or PDB records
row,Sequence,soluble on expression in E. coli
1,MEKPVICRIKEIIEESPTVKTFVVDKDFDFKPGQFAMLWLPGVDEKPFGFSSKNSFSVARVGEFTKKMHELKEGDIIGVRGPYGTYFEPIGDKVLAVAGGIGAAPIITAVEEFSKQGIEITTILGARTKEELLFLDRFEKVSRLEICTDDGSFGFKGFTTEKMKEVLKEEKFDLIITCGPEIMMKKVVEIANEYNIPVQVSMERYMKCGIGICGQCCVDDEGLCVCKDGPVFWGDKLKFIREFGKYKRDASGKKIYY,not soluble
2,NSVLFPCKYASSGCEITLPHTEKAEHEELCEFRPYSCPCPGASCKWQGSLDAVMPHLMHQHKSITTLQGEDIVFLATDINLPGAVDWVMMQSCFGFHFMLVLEKQEKYDGHQQFFAIVQLIGTRKQAENFAYRLELNGHRRRLTWEATPRSIHEGIATAIMNSDCLVFDTSIAQLFAENGNLGINVTISMC,soluble
3,MSLEEATVEDIMIPRTEIVGIDLDDPWSETLERLTNSQYTRMPVYRGTVDHVMGFVHVRRIVGDLVRGNFTPEDLQARLKEPFFIPEGTGLHTQLLKFQRQRERVGLVVDEYGEILGLAALDDILEEIVGEFTTDPGTLTRSINRQDDGTYLVEGSATVRELNRVLGWELETSGPKTLNGLILERLETIPEAGTSLLIDGYPVTIVQTQGNRVKTAEIQPERPPSVQREGHHHHHH,soluble
4,GRTVVVTTIMESPYVMYKKNHEMFEGNDKYEGYCVDLASEIAKHIGIKYKIAIVPDGKYGARDADTKIWNGMVGELVYGKAEIAIAPLTITLVREEVIDFSKPFMSLGISIMIKKGTPIESAEDLAKQTEIAYGTLDSGSTKEFFRRSKIAVYEKMWTYMRSAEPSVFTRTTAEGVARVRKSKGKFAFLLESTMNEYIEQRKPCDTMKVGGNLDSKGYGVATPKGSSLRTPVNLAVLKLSEAGVLDKLKNKWWYDKGECG,soluble
5,AGHMVSCCYRSLAAPDLTLRDLLDIVETSQAHNARAQLTGALFYSQGVFFQWLEGRPAAVAEVMTHIQRDRRHSNVEILAEEPIAKRRFAGWHMQLSCSEADMRSLGLAESRQIVTVGRSL,soluble
6,RPSINFYESLIDSSSLDGKLLSPRRSSGWVRVDTNMWGNPFFGFRSDLVSGQFRPDYPFRFSSNLYLSKEVKEIVLNTIASTPRNGVGRYKYSDLGFILLQQIVEKVSGKSLNVFVEERIFRPIGAGSLGYLPLDKYSVSRIAPAQNDKFLRKSIVRGTVDDE,not soluble
7,MSHVQAVIFDAFGTITRIENARHPFRQLLKLGIAQGRRPKPDDASMLMRHPWGLAQAADHFGIDVTPAELARIQAELDAEVASIQPFADALACIEALQAHGLKVAVCSNLARPYGAAVKRIFPGLESYGFSYEIGTLKPDRRIYEAALTELAVDACKVWMIGDSQRCDRDGPIALGIKGHYLNRTGAGSPSDFRDLMAFKHSVFESRSP,not soluble
8,MKLKAMYSFLSDDLAAVEEELERTVRSEYGPLGEAALHLLQAGGKRIRPVFVLLSARFGHYDFERIKHVAVALELIHMASLVHDDVIDDADVRRGRPTIKARWSNRFAMYTGDYLFARSLERMAELDSPRAHQVLAKTIVEVCHGEIEQIKDKYRFDQPLRTYLRRIRRKTALLIAASCQLGALAAGAPEAVANRLYWFGHCVGMSFQITDDILDFTGTEEQLGKPAGSDLQQGNVTLPVLYALCDEQVRAKITAVNADTDAEEMAAVLAAIKQTDAIERSYALSDRYLEKALRLLGELPANEARTLLHDLALYIGKRDY,not soluble
9,MNAHDEVQRTLNPTCTGTSVIALQYKTGVVVLTDRVVSYGKMARYKNVSRQYKVNDNVLIAFGGDHADFHWLQNVIERQVLLWKRFDQDIGPKALHGYLTSLLYAKRCKMNPVWNTLVVAGVEEEEKNNKETSTPFIGVITQKGCAYQVKHIATGLGAFLLNQAVEDEWRKKGEDLSREEAEAVLRKSLELTLYHDCVADNEFEIGRVDATEGVVLGKEEKIIGDWSIAETNCQYE,not soluble
10,MKRVFGILVCFMLLLSGTSVSFAQSEKTKQDKTEETTPKLAEQASSAIVIEQDTGKVLFDKNPNEKLPPASMTKIMTMLLIMEQVEKGKLKLTDKVRASEHAASMGGSQIFLEPGEEMTVNEMLKGIAIASGNDASVAVAEHIAGSEEGFVNMMNKKAKDLGLKNTHFQNPTGLPAKDHYSTANDMAIMAKELMKYPLIRKYTGKYEDYLREDTDKKFWLVNTNKLVRFYPGVDGVKTGFTTEAKYCLTASAEKNGMRVISVVMGAPTSKERNNQVTKLLDYAFGQYMTKKLYTRGEKIKTVQVGKGKKEKVDLVASDNVSLLMKKGENMDKVKQEVIAEKKVKAPIKKGDALGTLVIKKDKDVLLKQTIVAKEDVAAASWWELFKRSFGMFSTSK,not soluble
11,MGSDKIHHHHHHMRELPPLDLYETEAAERAGMAAGEPSAGDVELPAEPLLAGEARGQPFTRQSVAPLATIDLSTVPADDVTPRRWIVPDLIPDRNVTDISGDGGLGKSLLALQLGIAMAAGRDWLGTMPEPGGFLYVSCEDEPNEVLRRRNAVLAGMGLTPGDIRNLYLADLTDAEGTELAAPGKAALELTALHHRFEVTIRQLRPKCAVLDTRADVFGGNELSRVQVRMFVRSLRRLCIAHDMAIILLSHPSVSGMASGSGQSGSTGWGNSVRSRLYLTAPKSEGDTDLDPDIRILSSKKANYGPHGAEIVLRWDRGMFRPDRDALASLDRDQQDREIEVTFLQLLSKREKEGRRANASSGPNYAPKVLAEMNGTISRAKFRGAMERLFAKEEIASVSYEANGKGSTQLVLTDKGMSRLRIPF,not soluble
12,MLSEQLLAQQHLPEKLKKNIPGLYFHGRVGRGKTMLMDLFYQHLAIKNKKRIHFHHFMESVHQQLAQLTGQSEPLSHIAAKWAQNIDLLCFDEFYVSDIGDAMLLSGLFSALFKQGVTLVATSNCQPEQLYRNGLQRERFLPTIALINQHCQIVSINGDVDHRRTKLSKNSCYNNYFLLANEGNEKLIERFQSLTDAEMLVSGEIEINHRQLCYLAQSANVIFFDFFALCSGPRSQRDYMVLAKDFDTVCIANVPKFSGELVPAVFSGVEDSYQRSGVLMGELQQLDDEARRFIALVDEFYDQNVKLIVSAQVDIFELYQGQQLAFEFERCQSRLIEMQQSLEHHHHHH,not soluble
13,SMIPDFMSFTSHIDELYESAKKQSGGKVADYIPQLAKFSPDLWGVSVCTVDGQRHSTGDTKVPFCLQSCVKPLKYAIAVNDLGTEYVHRYVGKEPSGLRFNKLFLNEDDKPHNPMVNAGAIVVTSLIKQGVNNAEKFDYVMQFLNKMAGNEYVGFSNATFQSERESGDRNFAIGYYLKEKKCFPEGTDMVGILDFYFQLCSIEVTCESASVMAATLANGGFCPITGERVLSPEAVRNTLSLMHSCGMYDFSGQFAFHVGLPAKSGVAGGILLVVPNVMGMMCWSPPLDKMGNSVKGIHFCHDLVSLCNFHNYDNL,soluble
14,MGSDKIHHHHHHVTALPYLIEPLVLPAAVDSPDAGAFREFGELSDALVLETWGNADRSSPQEARLQYWRDNPYTQLRLFFVWLDGRMVARSWIRFGIQENVHTAVLHVNVLAEFSGRGIGRALLRHAEELAAARGCTTLQTFTEHPADFDAGGAGVLKPETGTGGVPAAARGVRFALAAGYRLEQVERFSALELPLAGDTLAALETEALEKSGEQYELLHWTDRCPDGLAQQLAVLMSRMSTDTPVGALNYDEESWDVARVRHVEDTWQKAGLASLVAGARHRATGELAAYSVLQVSDAKPWLANQDDTLVASHHRGHRLGMLVKILNIRRLLAGYPGVERIITFNAAENDHMLAINVALGFHPEGYDGEWQKAL,not soluble
15,MDILILFYNTMWGFPLEFRKEDLPGGCVITTDRNLIAKADAVVFHLPDLPSVMEDEIDKREGQLWVGWSLECEENYSWTKDPEFRESFDLWMGYHQEDDIVYPYYGPDYGKMLVTARREKPYKKKACMFISSDMNRSHRQEYLKELMQYTDIDSYGKLYRNCELPVEDRGRDTLLSVIGDYQFVISFENAIGKDYVTEKFFNPLLAGTVPVYLGAPNIREFAPGENCFLDICTFDSPEGVAAFMNQCYDDEALYERFYAWRKRPLLLSFTKKLEQVRSNPLIRLCQKIHELKLGGILEHHHHHH,not soluble
16,YTPPGRLGDESSGPRTDPRFSPAMVEALATFGLDAVAAAPPVSASDDLPTVLAAVGASHDGFQAVYDSIALDLPTDRDDVETSTETILGVDGNEITLHVFRPAGVEGVLPGLVYTHGGGMTILTTDNRVHRRWCTDLAAAGSVVVMVDFRNAWTAEGHHPFPSGVEDCLAAVLWVDEHRESLGLSGVVVQGESGGGNLAIATTLLAKRRGRLDAIDGVYASIPYISGGYAWDHERRLTELPSLVENDGYFIENGGMALLVRAYDPTGEHAEDPIAWPYFASEDELRGLPPFVVAVNELDPLRDEGIAFARRLARAGVDVAARVNIGLVHGADVIFRHWLPAALESTVRDVAGFAADRARLR,soluble
17,MGSDKIHHHHHHMTDLADLTCVGPGTPMGTLMRQYWVPAAKSSELKRDGDPMRLMLLGEKLIAFRDSEGRVGVLDHRCPHRCASLFLGRNEESGIRCVYHGWKFDVAGRCVDMPSVPPHQDFKDKVHAKAFRTAERNGLVWVYMGDAAEPPPLPAIEANLVADCEIWCLQRDCNWLQALEGDIDTSHVGFLHVGSLKPDDLADDHPMRPTVLDRAPEYAVTNTAWGTMYGGYRPNDDGQRSWRVAHFMFPFWTQTPNNRFSSRAIARAWVPMDDEHSMLFDITCGVDEGNPAYSSTRKTGEPLFAPFEYAPATTDWFGRWRCVDDRRNDWGIDRELQRNGSQYTGIPNITMQDQAVTESMGPIIDHSYEHLAPTDQMIARTRRRLLLATQALSEQGTLPPGAQDSDVFFGARAGSFLCDPGLPFETAYATQLETATRWAGDKVVS,not soluble
18,MAHHHHHHMPRIEISKDVKLTIMSYNIQMLSIPFSVHLNSWTRRNAIIDYICSLDDIYDIDILVLNEVFTKKCYKLLTSGKIKEKFPYHTNVIGRNYKRHDNYNDSSSSTGQKDGLSFHSSDTNINIESSRGISNYVSEQMEYIRKNKENHKNKLSKISEDISENSNSSYNSNFDTITGKRKFFHFVNGGVIVLSKHKILHKHALIYSSGKFPDVFCSKGAIYLKCDVMNKKVNVVATHLQAGDNKEQQKCRWKQIDELSKWVYEGIPSTFIKKFESLFFVGDFNIRYNADRLFLDKVLSDNYLNSYVTKKSLDTTYDSFLNDYCRYIERDYNYKHKYTLDYILVANNSNVEIIVPQTSIQNYYKSLYFIKFFLGIIPYKTTYIHHPSDHFPIYATFLILS,soluble
19,MSLFKIRMPETVAEGTRLALRAFSLVVAVDERGGIGDGRSIPWNVPEDMKFFRDVTTKLRGKNVKPSPAKRNAVVMGRKTWDSIPPKFRPLPGRLNVVLSSTLTTQHLLDGLPDEEKRNLHADSIVAVNGGLEQALQLLASPNYTPSIETVYCIGGGSVYAEALRPPCVHLLQAIYRTTIRASESSCSVFFRVPESGTEAAAGIEWQRETISEELTSANGNETKYYFEKLIPRNREEEQYLSLVDRIIREGNVKHDRTGVGTLSIFGAQMRFSLRNNRLPLLTTKRVFWRGVCEELLWFLRGETYAKKLSDKGVHIWDDNGSRAFLDSRGLTEYEEMDLGPVYGFQWRHFGAAYTHHDANYDGQGVDQIKAIVETLKTNPDDRRMLFTAWNPSALPRMALPPCHLLAQFYVSNGELSCMLYQRSCDMGLGVPFNIASYALLTILIAKATGLRPGELVHTLGDAHVYSNHVEPCNEQLKRVPRAFPYLVFRREREFLEDYEEGDMEVIDYAPYPPISMKMAV,soluble

# From the DeepSol protein solubility set
